The values that follow come from article PMC8922107.

This assay addresses Flag-PKM2 from the nuclear fraction of U87 cells (UniProt P14618). Description: SEC; Flag-PKM2 eluted with flag peptide in TBS (25 mM Tris, 150 mM NaCl, pH 7.2); Superdex 200 increase 10/300 GL, 4 °C, 0.5 mL/min; fractions analysed by western blot.

Flag-PKM2 from the nuclear fraction of U87 cells, P14618 1-531 (enzyme; other documents disagree on this pair), sequence (P14618 whole entry): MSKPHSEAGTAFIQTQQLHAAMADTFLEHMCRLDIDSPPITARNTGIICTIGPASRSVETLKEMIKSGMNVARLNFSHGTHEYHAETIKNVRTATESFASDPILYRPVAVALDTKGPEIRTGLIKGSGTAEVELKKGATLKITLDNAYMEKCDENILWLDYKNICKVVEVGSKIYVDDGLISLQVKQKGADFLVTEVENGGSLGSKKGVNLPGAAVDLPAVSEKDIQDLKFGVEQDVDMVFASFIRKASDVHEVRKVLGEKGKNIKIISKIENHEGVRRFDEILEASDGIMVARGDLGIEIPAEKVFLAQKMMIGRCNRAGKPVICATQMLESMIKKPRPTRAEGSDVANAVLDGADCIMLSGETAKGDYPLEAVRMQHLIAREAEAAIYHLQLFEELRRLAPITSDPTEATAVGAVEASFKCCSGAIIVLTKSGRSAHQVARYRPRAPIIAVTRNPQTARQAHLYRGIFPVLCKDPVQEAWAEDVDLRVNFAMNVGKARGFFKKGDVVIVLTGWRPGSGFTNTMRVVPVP

For “Flag-PKM2 from the nuclear fraction of U87 cells, P14618 1-531 (enzyme; other documents disagree on this pair)”, the stoichiometry N was 2.
